In US7968762 one finds growth of subcutaneous SK-LMS-1 (high Met) xenografts in hHGF Tg scid mice against control scid mice data, which are given here for one substance.

The assay has as its target human Met receptor (human) (UniProt P08581). Kind of assay: cell-based or functional assay.
UniProt P08581, sequence (P08581 25-1390): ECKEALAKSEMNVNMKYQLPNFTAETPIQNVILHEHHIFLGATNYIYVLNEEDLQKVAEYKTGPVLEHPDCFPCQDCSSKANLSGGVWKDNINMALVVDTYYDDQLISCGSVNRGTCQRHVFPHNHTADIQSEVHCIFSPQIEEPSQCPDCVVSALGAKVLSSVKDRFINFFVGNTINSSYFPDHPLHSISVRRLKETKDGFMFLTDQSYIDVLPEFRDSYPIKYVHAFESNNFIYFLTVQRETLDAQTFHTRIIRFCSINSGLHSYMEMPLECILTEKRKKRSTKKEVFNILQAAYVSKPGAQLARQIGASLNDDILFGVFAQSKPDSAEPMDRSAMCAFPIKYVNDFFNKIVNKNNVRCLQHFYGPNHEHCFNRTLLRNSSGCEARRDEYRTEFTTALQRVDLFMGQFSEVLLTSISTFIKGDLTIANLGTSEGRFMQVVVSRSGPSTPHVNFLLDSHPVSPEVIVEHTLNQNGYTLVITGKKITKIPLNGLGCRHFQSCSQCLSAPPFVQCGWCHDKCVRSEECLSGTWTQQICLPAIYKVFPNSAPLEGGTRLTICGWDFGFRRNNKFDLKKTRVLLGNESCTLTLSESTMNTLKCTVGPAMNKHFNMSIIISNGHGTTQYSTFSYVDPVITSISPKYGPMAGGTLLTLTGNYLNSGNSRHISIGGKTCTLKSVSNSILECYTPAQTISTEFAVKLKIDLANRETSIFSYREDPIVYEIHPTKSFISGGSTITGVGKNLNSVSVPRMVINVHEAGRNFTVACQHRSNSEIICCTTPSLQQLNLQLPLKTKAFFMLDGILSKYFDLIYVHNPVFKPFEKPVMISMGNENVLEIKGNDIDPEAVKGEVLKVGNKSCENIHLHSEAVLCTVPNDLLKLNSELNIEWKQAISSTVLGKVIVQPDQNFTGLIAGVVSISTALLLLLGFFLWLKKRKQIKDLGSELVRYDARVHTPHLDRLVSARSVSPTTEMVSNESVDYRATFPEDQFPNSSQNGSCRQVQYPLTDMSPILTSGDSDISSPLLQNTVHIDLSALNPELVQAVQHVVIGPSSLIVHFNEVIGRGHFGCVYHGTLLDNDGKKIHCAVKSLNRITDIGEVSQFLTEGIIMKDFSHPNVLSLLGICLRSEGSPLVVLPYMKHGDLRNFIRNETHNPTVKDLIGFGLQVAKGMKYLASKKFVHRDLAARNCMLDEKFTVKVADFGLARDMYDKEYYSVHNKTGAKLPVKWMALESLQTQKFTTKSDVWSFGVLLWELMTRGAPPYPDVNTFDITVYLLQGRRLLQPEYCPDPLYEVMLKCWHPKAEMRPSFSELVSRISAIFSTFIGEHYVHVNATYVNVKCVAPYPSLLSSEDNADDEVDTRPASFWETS

Turning to “human hepatocyte growth factor/scatter factor (hHGF/SF) (from UniProt P14210 32-728) (ligand)”, the growth of subcutaneous SK-LMS-1 (high Met) xenografts in hHGF Tg scid mice against control scid mice was 3 fold.
